Measured values: paper PMC8319368 (The Journal of Biological Chemistry, 2021)
One block for each binder: values may come before it.

Legend:
[1] = molecular target: T1, Saccharomyces cerevisiae Pol32, PCNA-binding subunit of DNA polymerase delta (ScPol32) (Saccharomyces cerevisiae), P47110; assay: ITC; conditions: remark: other sources report otherwise
T1 chain: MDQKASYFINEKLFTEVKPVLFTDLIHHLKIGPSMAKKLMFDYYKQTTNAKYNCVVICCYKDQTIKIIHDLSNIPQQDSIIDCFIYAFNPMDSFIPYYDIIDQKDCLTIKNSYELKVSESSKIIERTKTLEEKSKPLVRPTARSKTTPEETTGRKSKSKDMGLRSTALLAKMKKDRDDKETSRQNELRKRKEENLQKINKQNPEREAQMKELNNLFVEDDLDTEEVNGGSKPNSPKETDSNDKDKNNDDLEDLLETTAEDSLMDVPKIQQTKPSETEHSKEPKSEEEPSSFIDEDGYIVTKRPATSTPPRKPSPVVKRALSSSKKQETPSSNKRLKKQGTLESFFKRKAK

[2] = molecular target: the molecule itself; assay: native gel or EMSA
[3] = molecular target: T2, Saccharomyces cerevisiae Pol32, PCNA-binding subunit of DNA polymerase delta (ScPol32) (Saccharomyces cerevisiae, UniProt P47110 1-350); assay: ITC
T2 sequence: T1 chain

Kd [1]: 2.75 µM
dH [1]: -1.48 kcal/mol
stoichiometry N [1]: 1.05
B1: Saccharomyces cerevisiae PCNA (ScPCNA), wild type, P15873 1-258 (natural protein)
chain: MLEAKFEEASLFKRIIDGFKDCVQLVNFQCKEDGIIAQAVDDSRVLLVSLEIGVEAFQEYRCDHPVTLGMDLTSLSKILRCGNNTDTLTLIADNTPDSIILLFEDTKKDRIAEYSLKLMDIDADFLKIEELQYDSTLSLPSSEFSKIVRDLSQLSDSINIMITKETIKFVADGDIGSGSVIIKPFVDMEHPETSIKLEMDQPVDLTFGAKYLLDIIKGSSLSDRVGIRLSSEAPALFQFDLKSGFLQFFLAPKFNDEE

Kd [3]: 4.28 ± 0.325 µM
dH [3]: -1.24 ± 0.0554 kcal/mol
stoichiometry N [3]: 1.06 ± 0.035
B2: Neurospora crassa proliferating cell nuclear antigen (NcPCNA), GST tag cleaved (natural protein)
chain: MLEARLEQASILKKVVDAIKDLVQDCNFDCNDSGIALQAMDNSHVALVSMMLKTETFSPFRCDRNIALGVNLTSLTKVLRAAQNEDILTLKAEDAPDVLNLVFESSENDRISEYDLKLMDIDQEHLGIPDTEYAATISMPSSEFKRITTDLMAMSESVNIEASKDGVKFSCQGDIGNGSITLRQHTNVDKPSENIEIELSEPVSLTFSLKYLVNFCKASALSSTVKICLSNEVPLLVEYNISASSYLRFYLAPKIGDEE
stoichiometry N [2]: 3
